According to publication PMC4736791 (Biophysics, 2015):

Target: the molecule itself
Experiment: SAXS; nucleotide-free KaiC monomer (1.69 mg/ml) mixed with P-buffer containing ATP to 1 mM final; curve taken at 30°C 6 min after addition of ATP; monomer to hexamer

B1: KaiC (natural protein, UniProt Q79PF4 1-519, looked up)
chain: MTSAEMTSPNNNSEHQAIAKMRTMIEGFDDISHGGLPIGRSTLVSGTSGTGKTLFSIQFLYNGIIEFDEPGVFVTFEETPQDIIKNARSFGWDLAKLVDEGKLFILDASPDPEGQEVVGGFDLSALIERINYAIQKYRARRVSIDSVTSVFQQYDASSVVRRELFRLVARLKQIGATTVMTTERIEEYGPIARYGVEEFVSDNVVILRNVLEGERRRRTLEILKLRGTSHMKGEYPFTITDHGINIFPLGAMRLTQRSSNVRVSSGVVRLDEMCGGGFFKDSIILATGATGTGKTLLVSRFVENACANKERAILFAYEESRAQLLRNAYSWGMDFEEMERQNLLKIVCAYPESAGLEDHLQIIKSEINDFKPARIAIDSLSALARGVSNNAFRQFVIGVTGYAKQEEITGLFTNTSDQFMGAHSITDSHISTITDTIILLQYVEIRGEMSRAINVFKMRGSWHDKAIREFMISDKGPDIKDSFRNFERIISGSPTRITVDEKSELSRIVRGVQEKGPES
For B1, the “stoichiometry N” value was 6.05 ± 0.08 fold.
